From publication PMC3458543 come the findings set out here.

The target of this series is T1, His-Six1-HD (Mus musculus, UniProt Q62231 110-201).
T1 sequence: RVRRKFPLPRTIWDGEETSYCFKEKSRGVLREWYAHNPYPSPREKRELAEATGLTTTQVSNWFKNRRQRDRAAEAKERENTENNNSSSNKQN
Kind of series: EMSA.

B1: Myog_mut34 (dsDNA)
DNA 1: GTTAGAGGGGGTATCAGGTTTGTGTGGCGTTGGC
DNA 2: GCCAACGCCACACAAACCTGATACCCCCTCTAAC
For the molecule B1, the binding result is given as “binds”.
